# Assay: label from the status in PepcDB records
row,Sequence,protein production
1,MAYGTYRGLFAPEVAGPLAKLLVLLLVGYGLYQNRHLKSLYLVLLGLLLNALVIFANGGHMPVSPTALHRAGIGEFADLLRDKGDAVHALLDEKTRLPFLGDVIPLPPLRKVVSPGDLFILLGIVGVVVEGALKGGVRLRRRALALRLLLYLAFVLALLALRG,failed
2,MAYLAPISSSLSIFKNPQLSRFQFSSSSPNPLFLRPRIQILSMTMNKSPSLVVVAATTAAEKQKKRYPGESKGFVEEMRFVAMRLHTKDQAKEGEKETKSIEERPVAKWEPTVEGYLRFLVDSKLVYDTLELIIQDSNFPTYAEFKNTGLERAEKLSTDLEWFKEQGYEIPEPTAPGKTYSQYLKELAEKDPQAFICHFYNIYFAHSAGGRMIGRKVAERILDNKELEFYKWDGELSQLLQNVREKLNKVAEEWTREEKNHCLEETEKSFKYSGEILRLILS,failed
3,MCCPPMTSSSSLSHHASQSGQVRLCPGCELPIDAITVDQAHSAHCPRCGTLLYRGGSPSLSGDLALAVTCLLLFIPSHFFSYIDIRLFGVMIPATLPQGVFALWDEGYIALALLVLFCSSIAPLVLCLSVVSAHLALRFRYFQTLRYSLLFIHHLKVWVMIDVFLVSVAVSCFKLKDYSDIFIGPGLLGLVLLQLFTVLLLSRISTRRYWETWQAETEYDLPVKQVHCHNCHLSQPENGHCVRCQHKLYHRKPNSIERTWAYVLAATVAIFPANLIPISILITNGQRLEDTIFSGVASLVKNGMWGIALIIFVASIVVPVIKIIGLAYLLMAIKLKRHVHQRQRMMIYRGIKWIGKWSVMDLFVISIMLTLVDRGQILDFTPGYGAVAFGMVVVLTMLAAESLDPRLLWDEPDSTRTQQ,failed
4,MCDCLSIILLVKMKKIYLKFVDFWDGFDTISNFIVDALSIQYEVVLSNEPDYLFYSCFGTSHLEYDCIKIMFIGENIVPDFNVCDYAIGFNYIDFGDRYLRLPLYAIYDGFSNLQNKKIDVNKALDRKFCSIVVSNNKWADPIRETFFKLLSSYKKVDSGGRAWNNIGGPVDNKLDFISQYKFNIAFENSRVLGYTTEKIMEPMQVNSIPVYWGNPLVGKDFNVDSFVNAHDFDSLERLVEYIIELDSSKDKYLEMLEKPWLLDKTYLDWKQLLLNFINNIMMKSYKDAKYLVNYGHAGKYRNEQRFWGRCERKFKLQRIIEYYSQLFDRKLEHHHHHH,failed
5,MCDFISHNKQLFDELDIFIDSLATKEGALIQVLHEAQGIFGYLPKEVQLHVARKLGVAPAKVYGVVTFYSYFTTEPVGKYKISVCLGTVCFVKGADKILSAFEKQLGIKVGETTSDFKFSLEGLRCLGACGLAPVVTVNGKVYGKVKPDQVSEILDTYRELELNC,failed
6,MCDQTKHSKCCPAKGNQCCPPQQNQCCQSKGNQCCPPKQNQCCQPKGSQCCPPKHNHCCQPKPPCCIQARCCGLETKPEVSPLNMESEPNSPQTQDKGCQTQQQPHSPQNESRPSK,failed
7,MCEIFIRANQRSYSVQARSLRLHGVATSVRLEQLFWDVLEEIAARDGMRVTQLIERLYDELVQYRGEAANFTSFLRVCCLRYQVLQAEGRIPADATVPIRSLDAQAVLRGLPANLYDSRPLG,not failed
8,MCGLAGWVDYTRKLDDEFPAIFAMTDTLALRGPDAEGIWKHRNALLGHRRLAVIDLSGGVQPMSYRFPTGQEVTLVYTGEVYNHDALRERLRRAGHEFRTRSDTEVVLHAYLQWGERCCEYLTGMFAFAVFDGRDGHLLLVRDRLGIKPLYYARHREGLLFGSEIKSILAHPEFAARLDAVGLVDLLTLSRGTSQTPFREVQELLPGHLLSWRPNSQAKLRRYWEVRRQEHADDLQSTVQRTRELVTRALGAQLHADVPVCSLLSGGLDSTALTGIAQRIAKAEHGGDINSFSVDFVGQAEQFRSDDLRPDQDQPFALLAAQYIGSRHRTVLIDNAELVCERAREEVFRAKDVPFTFGDMDTSLHLMFGEIRRHSTVAISGEGADELFGGYGWFRDPQAVAAARFPWASRVRLPAGFIDAGFNRRCDLLQYQQASYDDGLRQVEHLAGDSPEERRMREFSHLHLKRWMVLLLERKDRLSMCNGLEVRVPYTDHELVEYVYNVPWSIKSRDGEEKWLLKRACADYVPEAVLKRRKSPYPTSANLGYERFLRGSVRRLLEDAVNPVFGIVSREFLAAELEHPEGYFNTQVSRHNLETALALEGWLRLYGLS,failed
9,MCGTRSSAQTSKTSLCALLLSAAMSLVLAAPASAAADCIAGSKAAPAELITSCSAIIDQAANSSSDRAAALLVRADANARTSGGLTQALRDIDRAIALDGKNAKAWRLRGDLLREAGGDLNRAAADLSKAIELDPQDAESYELRGVVYTSQRRLDRALADYDQAIKLKPGDAQAWSDRGVTYYLGGDNEKAIRDLSEALRLDPNRPRTYTNRGAAYKKLGQLDKSVADAAEAIRLDPKVPEYYDNRGLSLAAMGDYDKAIADYDQALRLAPKPNFFTNRGDSYQFKGEFGAALSDYESALKLDPNFAQTYNNRAVLYKKMGERRKALADYETALKLDPGNDNAANGRRTMIAEIAKFGDEPRRPLAANSGNGPSFDCATAKREVEKVICADPELGVLDRQIAETYERVLKSANRRSAGDLRRTQRDFLATRNSSFGRPGYDLRKVMQERLQRLNAMEG,failed
10,MCIAIPGKMTAIVDENTATIDMGGICRDVNMALMGGAEESMIGKHFLVHVGYAISEISEEESEETMRLLKIMAGLEEIDSFENESQ,failed
11,MCLAIPSVVIDIFEEDGEKYALAEYKGVKQKAKLALIEGVEIGDYVLIHTGYALEKMSEDEAKLSLDAWEELFDVLDEM,failed
12,MCNDTATPQLEELVTTVANQLMTVDAATSAEVSQRVLAYLVEQLGVDVSFLRHNDRDRRATRLVAEWPPRLNIPDPDPLRLIYFADADPVFALCEHAKEPLVFRPEPATEDYQRLIEEARGVPVTSAAAVPLVSGEITTGLLGFIKFGDRKWHEAELNALMTIATLFAQVQARVAAEARLRYLADHDDLTGLHNRRALLQHLDQRLAPGQPGPVAALFLDLDRLKAINDYLGHAAGDQFIHVFAQRIGDALVGESLIARLGGDEFVLIPASPMSADAAQPLAERLRDQLKDHVAIGGEVLTRTVSIGVASGTPGQHTPSDLLRRADQAALAAKHAGGDSVAIFTADMSVSGELRNDIELHLRRGIESDALRLVYLPEVDLRTGDIVGTEALVRWQHPTRGLLAPGCFIPVAESINLAGELDRWVLRRACNEFSEWQSAGLGHDALLRINVSAGQLVTGGFVDFVADTIGQHGLDASSVCLEITENVVVQDLHTARATLARLKEVGVHIAIDDFGTGYSAISLLQTLPIDTLKIDKTFVRQLGTNTSDLVIVRGIMTLAEGFQLDVVAEGVETEAAARILLDQRCYRAQGFLFSRPVPGEAMRHMLSARRLPPTCIPATDPALS,failed
13,MCRKRYKKQNLGVSKNMLEGHENKVSGVYEKNRSAGYEKEILKPKNVWEEFFADKRSGGHRSSAEEFLAMEAKEKLFHLDGGKILLDFGCGAGELLVYYAQEYEKTIGVDFSPSMLEEASKRIRERNCKNTTLILADDKIVWDKLDSSFDRITAAGVFQYLTYQKIDDFIFNASKHLNEGGKIVLFDMLDPRLYPLWKMGLFSQDKSCRKILSKAVCGVKNSISASLKRRPRDILGYSHYPNKIKKIANKNGFEMICVQSMYYEYKYHAIIFRS,failed
14,MCSIGVTALCSPAKFHHRREQSLIFTPTHLRNPNGFQFRWRKSRPFAPRLAQPDNFAPPLPLIRSSTSLLSSKDFVQMLARKAAILLVGSFVFLGFCSSKPALALPTATVVSQAELEDEKMFEKLLENEPENMEAMKAVVYKKMRRGKNEDAVKYVEKLMKLEPHEVEWKLLEALCYETMGELSKAKRLYKDILKEQPLLIRALHGLAMVMHKTHDTSVFDMLIEAMEVARQGNRVTEERNIQVLIGQMHIVEGQFEEGLKIFQQMVNDNPRDFRPYLCQGIVYSLMDKKEEAAQQFEIYWSLVPGEFPQKGFLDDVALAAQAKSRERLQNTFKAKFTQGR,failed
15,MCTKNETKPLPSFIEERLNFHIQDLIKSNENQKHLVLGKRPSENAVVMQSNDYLSLSHNELIQKAHRDAISERDDNVVMSAIFLQDDQSKPAFEHQLATFVGMESCLLSQSGWAANIGLLQTICAPNLPVYIDFFAHMSLWEGARTAGAQIHPFMHNNMNHLRKQIQRHGAGIIVVDSVYSTIGTIAPLRAIYEMAKEFDCGLVVDESHSLGTHGPEGSGLLQKLGLTQMVDFVTVSLAKTFAYRAGAILGPNKLAQSLPFVAYPAIFSSTVLPQEVVRLEKTLEVIKAADDKRECLFKRAKELAIGLKRIGFNIRSESQIIALECGSERNTERVRDFLEERDVFGAVFCRPATGRNKNIIRFSVNADMTAQQVDHVLSACQEAFDHPDLEFV,not failed
16,MCTPAADTRRGSPALASTARRGLLPARRNGPSARRGEALRSSTGRFVCWCRRRTASVDPSGFMPASFSIAGRLVDLHARAIRPATVHVQDGVIARIEPAETVPERHLLPGFIDAHVHVESAMLPPSEFARAAVRHGTVGTVSDPHEIANVLGVEGVEYMIADGRPVPFHFAFGAPSCVPATPFETSGAELGPDAVSALLDRDDVPYLSEMMDYPGAIDGAPNVLAKIRAAQVRDKPVDGHAPGLRGDDVAQYAAAGIETDHECVSIEEAREKLEAGMKIAIREGSAAKNFDELIPLMDEAPDRLMFCSDDRHPDALAEGHIDTLVRRALNRGYDRFDVLRAACVHPVEHYGLDVGLLREGDPADFIVVDDLDALNVQETYVEGALVAEEGETHIEHVASDVVNRFDAEPVAPADFRVPAGGDRLRVITAVDNQLGTGEEVVTTPTDDGYAVADPDRDVLKLAVVNRYTEESTPAVAFVRGFGLDGGALASSVAHDSHNVVAVGARDDALARAVNAVVRAEGGISAAAEGTQVLPLPIAGLMSDEPYDVVARRYTRLTDYVRAELGSAMDAPFMTLSFLSLLVIPQLKLSDRGLFDGAAFEFVDRFVD,failed
17,MCYASMEMSAPIRFGTEGFRGVIAREFTFATLHRLAEAYGRHLLERGGGLVVVGHDTRFLADAFARALSGHLAGMGLKVVLLKGPVPTPLLSFAVRHLKAAGGAMLTASHNPPQYLGVKFKDATGGPIAQEEAKAIEALVPEEARALEGAYETLDLREAYFEALKAHLDLKALSGFSGVLYHDSMGGAGAGFLKGFLRHVGLEIPVRPIREEPHPLFHGVNPEPIPKNLGVTLAVLGPETPPSFAVATDGDADRVGVVLPGGVFFNPHQVLTTLALYRFRKGHRGRAVKNFAVTWLLDRLGERLGFGVTTTPVGFKWIKEEFLKGDCFIGGEESGGVGYPEHLPERDGILTSLLLLESVAATGKDLAEQFKEVEALTGLTHAYDRLDLPLKAPLDLTPFREPRPLAGLTPKGVDTLDGVKWLYEEAWVLFRASGTEPVVRIYVEAQSPELVRALLEEARKLVEG,not failed
18,MDAAHRHGVPVLGNIFLPPVAYGGQLQWTRDLVQKDATGHYPLAAQLVAVADAYGFDGWFVNAETSGGNTALATDMRGFLQELKALGTAKGQRVTWYDSMTATGSVSWQGALNSQNQAFFQAADSMFVDFRWSKSTLASSGTLAGQLGRSRYELWAGVDVESNGTSTSVNWDAIVPSASAHVVSLGFYRPEWTRNHLPANRTPGDFHAADDLFWTGASLDPAKPNTTASWRAPALRVADRSTVDSLPFATVFNTGHGLKWYEGGEVTSDTAWNHLGLQDRLPSRRWIVRTSGARPSVTFDFADAWRGGSSVLVAGTLGAPATLDLYETRLPVGSSETVVELTHRTDAGSAQIELAVATAEPSAPGQAPSYTYFPVSSGDGWGTSTVRLTGLSGTVRTLAVRLTGSGSPVRWRLGALAVKNAPAEPAAPTGLRVTDADGGSLRFSWQPAAGEVRHYELHRVLADGTRRFLGGTCQCAYYVAGLAAEQGESAARFELRAVGELYTESTATTTTHPW,failed
19,MDAKEVSAHWESNAETWTMLSRAGHDRYRDTLNTPAFLAMLPPVAGLKGLDLGCGEGTNTRTVARLGASMTGLDIAPTFLRHARDAERRDPLGIDYVLGDGLTLPFADRSFDFVTAFMSMMDMVDQAAVLREVARVLKPGGFLQFSILHPCFVPPTRRNIRDAEGAPVAVEVADYFDESDGRVERWLFSSISAEQQAALTPFAVPRFHRTLSTWVAMIVGARLSIEAFGEPRASEEVAAAEPIVADTRVAPIFLHVLAKRPTTP,failed

# Source: a protein production outcome set (Wang et al. 2014)
